Data taken from article PMC4486954, “Highly homologous proteins exert opposite biological activities by using different interaction interfaces” (Scientific Reports, 2015).
No end group written: not given here.

Key:
HLT-iASPP Ank-SH3 = assay: Peptide array screening: HLT-iASPP Ank-SH3 binding to array of iASPP Pro derived peptides; design: species or system human; conditions: CelluSpots array, N-acetylated 15-residue peptides on cellulose; 5 μM protein, 4 °C overnight; IS = 150 mM, pH 7.0; anti His HRP, chemiluminescence
Procedure: (§1) The CelluSpots^TM peptide micro-arrays were synthesized by INTAVIS Bioanalytical Instruments AG, Köln, Germany. The 15 residue peptides were acetylated at their N-termini and attached to a cellulose membrane via their C termini through an amide bond. For screening the binding of the array to HLT-iASPP Ank-SH3 the array was first washed for 4 h at room temperature with 50 mM Tris-HCl pH = 8 at an ionic strength (IS) of 150 mM adjusted by NaCl, 0.05% Tween20 and 2.5% (W/V) skimmed milk (buffer D) for blocking unspecific binding. HLT-iASPP Ank-SH3 was dissolved in 20 mM Phosphate buffer pH = 7.0 IS = 150 mM, 5 mM βME, 10% glycerol and 0.02% NaN3 and 2.5% skimmed milk. 5 ml of 5 μM of the protein were incubated with the arrays at 4 °C with shaking overnight. After three washes with TBST, the array was incubated with anti His HRP conjugated antibody at room temperature for 1 hour. The antibody was dissolved in buffer D. Then the array was washed again three times with TBST. Immunodetection was performed using chemiluminiscence (ECL reagents). Peptide array screening for binding HLT-iASPP Pro was also preformed as above with change of the proteins buffer. HLT-iASPP Pro was dissolved in 50 mM Phosphate buffer pH = 7.0, 10% glycerol, 0.02% NaN3, 0.001% Tween 20, IS = 150 mM and 2.5% skimmed milk.

iASPP Ank-SH3 [1] = molecular target: T1, iASPP Ank-SH3 (Homo sapiens, UniProt Q8WUF5); assay: Fluorescence anisotropy binding of fluorescein-labeled iASPP Pro derived peptides to iASPP Ank-SH3; conditions: 250 μM iASPP Ank-SH3 titrated into 100 nM fluorescein-labeled peptide, 10 °C, 20 mM Hepes pH 7.3, ionic strength 50 mM
T1 construct: (2) iASPP Ank-SH3 603-828; HLT tag (His tag + lipoyl domain + TEV site) (N, cleaved yes); made in house; host or cells: E. coli HMS 174 (Novagen)
T1 sequence (Q8WUF5 603-828): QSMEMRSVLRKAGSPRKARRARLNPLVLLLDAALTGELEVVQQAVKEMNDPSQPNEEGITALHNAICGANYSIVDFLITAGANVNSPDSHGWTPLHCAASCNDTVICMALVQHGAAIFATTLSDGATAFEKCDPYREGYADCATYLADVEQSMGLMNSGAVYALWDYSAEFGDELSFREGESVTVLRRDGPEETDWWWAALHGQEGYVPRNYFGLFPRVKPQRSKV
Procedure: Binding of the iASPP Pro-derived peptides to iASPP Ank-SH3 was measured by fluorescence anisotropy using a PerkinElmer Life Sciences LS-50b spectrofluorimeter equipped with a Hamilton microlab M dispenser. Titration of iASPP Ank-SH3 into iASPP Pro derived fluorescein-labeled (FL) peptides was performed at 10 °C in 20 mM Hepes buffer, pH 7.3, 43 mM NaCl (total ionic strength = 50 mM), 10% glycerol and 5 mM β-mercaptoethanol. The excitation wavelength was set at 480 nm and the emission measured at 530 nm. The labeled peptide, dissolved in 1 ml buffer to a final concentration of 100 nM, was placed in the cuvette. 250 μM iASPP Ank-SH3 was placed in the dispenser and aliquots of 10–20 μl were added at 1.5 min intervals. The solution was then stirred for 30 sec, and the fluorescence and anisotropy were measured. Data were analyzed using the program Origin8 (OriginLab) and were fit to 1:1 binding model:
[drawing 1] (R- measured fluorescence anisotropy, R0- anisotropy value corresponding to the free peptide, ∆R- amplitude of the fluorescence anisotropy change, [Protein]- protein concentration, Kd- dissociation constant).

HLT-iASPP Pro [2] = assay: Peptide array screening: HLT-iASPP Pro binding to array of iASPP Ank-SH3 derived peptides; design: species or system human; conditions: CelluSpots array, N-acetylated 15-residue peptides on cellulose; 50 mM Phosphate pH 7.0, IS = 150 mM; anti His HRP, chemiluminescence
Procedure: as §1

[3] = molecular target: iASPP 616-623 peptide 616-623 (Homo sapiens) (UniProt Q8WUF5); assay: ITC; conditions: cited from earlier work
iASPP Ank-SH3 [4] = molecular target: T1, iASPP Ank-SH3; conditions: cited from earlier work
Excerpt: iASPP 1-478 and specifically iASPP 1-240 but not iASPP 249-482 were previously shown to bind iASPP Ank-SH3 in a pull down assay. We further mapped this interaction using peptide arrays and identified the exact regions in iASPP Pro that bind iASPP Ank-SH3.

HLT-iASPP Pro [5] = molecular target: T2, HLT-iASPP Pro (human, UniProt Q8WUF5 1-602); assay: peptide or protein array; CelluSpots array of 24 partly overlapping 15-residue iASPP Ank-SH3 peptides on cellulose; HLT-iASPP Pro in 50 mM phosphate pH 7.0, 10% glycerol, 0.001% Tween 20, ionic strength 150 mM, 2.5% skimmed milk; detected with anti His HRP antibody; conditions: both partners purified
T2 construct: iASPP (human), proline rich (Pro) domain, residues 1-602 of the 828-residue protein, Swiss-Prot Q8WUF5; Cloned EcoRI/NotI into pHis parallel 2HLT; calculated Mw with tag 75.9 kDa; also called iASPP Pro 1-602; iASPP 1-602; source: E. coli Rosetta2, purified (Nickel Sepharose, size exclusion chromatography); not shown: HLT (His tag, lipoyl domain, TEV protease cleavage site), N-terminal, kept
T2 sequence (looked up): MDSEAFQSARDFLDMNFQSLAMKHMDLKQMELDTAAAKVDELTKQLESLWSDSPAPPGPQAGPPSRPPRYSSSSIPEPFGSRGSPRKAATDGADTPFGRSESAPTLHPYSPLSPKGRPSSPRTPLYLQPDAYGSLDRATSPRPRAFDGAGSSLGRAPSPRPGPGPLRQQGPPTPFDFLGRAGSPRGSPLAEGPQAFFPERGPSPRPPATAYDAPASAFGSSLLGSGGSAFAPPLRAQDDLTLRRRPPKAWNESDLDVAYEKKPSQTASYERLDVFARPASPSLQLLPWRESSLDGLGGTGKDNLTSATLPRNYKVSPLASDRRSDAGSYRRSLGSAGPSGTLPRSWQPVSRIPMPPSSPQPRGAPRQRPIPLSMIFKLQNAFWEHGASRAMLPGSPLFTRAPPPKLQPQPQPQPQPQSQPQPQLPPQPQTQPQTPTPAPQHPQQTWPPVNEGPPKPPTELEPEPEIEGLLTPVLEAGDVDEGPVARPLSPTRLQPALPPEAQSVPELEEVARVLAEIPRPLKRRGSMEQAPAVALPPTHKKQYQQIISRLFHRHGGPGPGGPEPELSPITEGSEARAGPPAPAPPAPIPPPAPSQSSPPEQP

iASPP Ank-SH3 [6] = molecular target: T3, iASPP Ank-SH3 (human, UniProt Q8WUF5 603-828); assay: fluorescence polarisation; fluorescence anisotropy; 250 uM iASPP Ank-SH3 titrated into 100 nM fluorescein-labeled peptide; 10 °C; 20 mM Hepes pH 7.3, 43 mM NaCl (ionic strength 50 mM), 10% glycerol, 5 mM β-mercaptoethanol; fit to a 1:1 model; conditions: both partners purified
T3 construct: iASPP (human), four ankyrin repeats and SH3 domain, residues 603-828, Swiss-Prot Q8WUF5; also called iASPP Ank-SH3 603-828; cleaved iASPP Ank-SH3; source: E. coli HMS 174, purified (Nickel Sepharose, TEV cleavage, second Nickel column, size exclusion chromatography); not shown: HLT (His tag, lipoyl domain, TEV protease cleavage site), N-terminal, cleaved
T3 sequence (looked up): T1 sequence (Q8WUF5 603-828)

iASPP 83-90: iASPP Pro derived peptide that includes the iASPP phosphorylation site S84 (GSPRKAAT; UniProt Q8WUF5 83-90, looked up, fragment)
binding of HLT-iASPP Ank-SH3 to the peptide in the array (HLT-iASPP Ank-SH3): did not bind
binding to iASPP Ank-SH3 (in words) (iASPP Ank-SH3 [1]): did not bind

YALWDYSAEFGDELS [iASPP 764-778, array peptide, iASPP Ank-SH3 residues 764-778, RT loop]
binding of HLT-iASPP Pro to the peptide in the array (HLT-iASPP Pro [2]): bound

EGYADCATYLADVEQ [iASPP 739-753, array peptide, iASPP Ank-SH3 residues 739-753, fourth ankyrin repeat]
binding of HLT-iASPP Pro to the peptide in the array (HLT-iASPP Pro [2]): bound

iASPP Ank-SH3 (from UniProt Q8WUF5)
Kd [3]: 45 µM

WAALHGQEGYVPRNY [iASPP 800-814, array peptide, iASPP Ank-SH3 residues 800-814]
binding of HLT-iASPP Pro to the peptide in the array (HLT-iASPP Pro [2]): bound

SMEMRSVLRKAGSPR [iASPP 604-618, array peptide, iASPP residues 604-618]
binding of HLT-iASPP Ank-SH3 to the peptide in the array (HLT-iASPP Ank-SH3): bound

B1: iASPP 1-478: iASPP fragment 1-478 of a previous pull down assay (protein, UniProt Q8WUF5 1-478, looked up, fragment)
chain: MDSEAFQSARDFLDMNFQSLAMKHMDLKQMELDTAAAKVDELTKQLESLWSDSPAPPGPQAGPPSRPPRYSSSSIPEPFGSRGSPRKAATDGADTPFGRSESAPTLHPYSPLSPKGRPSSPRTPLYLQPDAYGSLDRATSPRPRAFDGAGSSLGRAPSPRPGPGPLRQQGPPTPFDFLGRAGSPRGSPLAEGPQAFFPERGPSPRPPATAYDAPASAFGSSLLGSGGSAFAPPLRAQDDLTLRRRPPKAWNESDLDVAYEKKPSQTASYERLDVFARPASPSLQLLPWRESSLDGLGGTGKDNLTSATLPRNYKVSPLASDRRSDAGSYRRSLGSAGPSGTLPRSWQPVSRIPMPPSSPQPRGAPRQRPIPLSMIFKLQNAFWEHGASRAMLPGSPLFTRAPPPKLQPQPQPQPQPQSQPQPQLPPQPQTQPQTPTPAPQHPQQTWPPVNEGPPKPPTELEPEPEIEGLLTPVLEAGD
binding to iASPP Ank-SH3 in pull down assay (iASPP Ank-SH3 [4]): bind

B2: iASPP Ank-SH3 array peptide 739-753 (spot E16) (peptide)
peptide: Ac-EGYADCATYLADVEQ-{cellulose membrane (amide bond)}
modifications: also: C-terminus bound to cellulose membrane via amide
notes: source: synthetic peptide on CelluSpots array (INTAVIS)
binding result (HLT-iASPP Pro [5]): binds

B3: iASPP Ank-SH3 array peptide 764-778 (spot E19) (peptide)
peptide: Ac-YALWDYSAEFGDELS-{cellulose membrane (amide bond)}
modifications: also: C-terminus bound to cellulose membrane via amide
notes: as for B2
binding result (HLT-iASPP Pro [5]): binds

B4: iASPP Ank-SH3 array peptide 800-814 (spot E23) (peptide)
peptide: Ac-WAALHGQEGYVPRNY-{cellulose membrane (amide bond)}
modifications: also: C-terminus bound to cellulose membrane via amide
notes: iASPP (human) residues 800-814; also called iASPP 800-814; source: synthetic peptide on CelluSpots array (INTAVIS)
binding result (HLT-iASPP Pro [5]): binds

B5: iASPP 1-240: iASPP fragment 1-240 of a previous pull down assay (protein, UniProt Q8WUF5 1-240, looked up, fragment)
chain: MDSEAFQSARDFLDMNFQSLAMKHMDLKQMELDTAAAKVDELTKQLESLWSDSPAPPGPQAGPPSRPPRYSSSSIPEPFGSRGSPRKAATDGADTPFGRSESAPTLHPYSPLSPKGRPSSPRTPLYLQPDAYGSLDRATSPRPRAFDGAGSSLGRAPSPRPGPGPLRQQGPPTPFDFLGRAGSPRGSPLAEGPQAFFPERGPSPRPPATAYDAPASAFGSSLLGSGGSAFAPPLRAQDDL
binding to iASPP Ank-SH3 in pull down assay (iASPP Ank-SH3 [4]): bind

{5(6)‑carboxyfluorescein}-KKQYQQIISRLFHRHGGPGPGGP [fluorescein labeled iASPP 540-562]
Kd (iASPP Ank-SH3 [6]): 34 ± 2 µM

{5(6)‑carboxyfluorescein}-QAGPPSRPPRYSSSS [fluorescein labeled iASPP 60-74]
Kd (iASPP Ank-SH3 [6]): 35 ± 2 µM

B6: iASPP 249-482: iASPP fragment 249-482 of a previous pull down assay (protein, UniProt Q8WUF5 249-482, looked up, fragment)
chain: AWNESDLDVAYEKKPSQTASYERLDVFARPASPSLQLLPWRESSLDGLGGTGKDNLTSATLPRNYKVSPLASDRRSDAGSYRRSLGSAGPSGTLPRSWQPVSRIPMPPSSPQPRGAPRQRPIPLSMIFKLQNAFWEHGASRAMLPGSPLFTRAPPPKLQPQPQPQPQPQSQPQPQLPPQPQTQPQTPTPAPQHPQQTWPPVNEGPPKPPTELEPEPEIEGLLTPVLEAGDVDEG
binding to iASPP Ank-SH3 in pull down assay (iASPP Ank-SH3 [4]): not
